Patent publication US20230270832A1, “MAGEA1 IMMUNOGENIC PEPTIDES, BINDING PROTEINS RECOGNIZING MAGEA1 IMMUNOGENIC PEPTIDES, AND USES THEREOF” (TScan Therapeutics, Inc., priority 2021, published 2023)

Assays:
[1] = system: C*07:02 HEK reporter cells that express the indicated full length proteins; experiment: Full-length ORF validation of putative off-targets in C*07:02 HEK reporter cells; assay type: cell-based, human; conditions: co-culture with C*07:02 HEK reporter cells
Method: Hit that validated as targets using 90-mers were advanced to testing against full protein open reading frames (ORFs). ORFs for TLE3 and SLC6A13 were cloned from the ORFeome Collaboration Library (Horizon). LAMB4 intron retention ORF was synthesized (GenScript). These clones were cloned into lentiviral over-expression vectors and delivered to C*07:02 HEK reporter cells by transduction followed by selection with puromycin. Cells were seeded a day before co-culture with T cells expressing HN-32-41 at an E:T ratio of ˜2:1. After 4 hours, the co-cultures were harvested by pipetting and fluorescence of the reporter was detected using a CytoFLEX™ S instrument (Beckman Coulter). The PIGO ORF clone was purchased from Genscript in pcDNA3.1 overexpression vector and delivered by transient transfection using FuGENE6 reagent (Promega). C*07:02 HEK reporter cells were seeded to adhere overnigth, then transiently transfected with the PIGO ORF. The media was refreshed then cells expant overnight. Cells were co-cultured with T cells expressing HN-32-41 at an E:T of ˜2:1. After 4 hours, the co-cultures were harvested by pipetting and fluorescence of the reporter was detected using a CytoFLEX™ S instrument (Beckman Coulter).

[2] = system: primary cells from healthy HLA-C*07:02+ human donors; experiment: Co-culture with normal primary cells, IFNγ secretion; assay type: cell-based; conditions: pan T cells, non-pulsed primary cells vs MAGE-A1 peptide pulsed
Excerpt: Primary normal cells from C*07:02+ donors that were expanded, confirmed to maintain differentiation states, and frozen were obtained (Lonza). Tested samples include: Human umbilical vein endothelial cells (HUVEC (CC-2517)), lung small airway epithelial cells (SAEC (CC-2547)) and lung bronchial-tracheal epithelial cells (NHBE (CC-2540)).
Prior to co-culture assays, primary normal cells were thawed, washed, resuspended in RPMI media supplemented with IL-2, IL-7, and IL-15 and seeded in 96-well flat-bottom culture plates at a density of 200,000 cells/well and allowed to rest for 4 hours. Cells were pulsed with MAGE-A1 peptide for 1-2 hours or left un-pulsed in their respective media. HN-32-41 or untransduced (NTD) T cells were then added at a density of 100,000 cells/well in complete T cell media. 24 hours post co-culture, supernatants were collected and frozen at −80° C.). Supernatants were thawed and analyzed for IFN-γ levels by loading on a Simple Plex Human IFN-gamma (3rd Gen) Cartridge (ProteinSimple, San Jose, Calif.) using the Ella™ instrument.
For flow cytometry analysis (Cytoflex S™ instrument, Beckman Coulter), cell pellets were washed with FACS buffer (PBS, 0.5% BSA, 2 mM EDTA) and stained for activation-induced markers, including PE-conjugated anti-CD137 (Miltenyi), AF647-conjugated anti-CD69 (Biolegend), and BV421-conjugated anti-CD8 (BioLegend).

[3] = system: cell lines with low to zero MAGEA1 expression; assay type: cell-based, human
Method: Cancer cell lines were purchased from ATCC (Manassas, Vα.) and HEK293T cells were originally from Takara Bio (Shiga, Japan). All media were supplemented with […], except U266B1 which required 15% FBS, and 1% penicillin and incubated at 37° C. in 5% CO2. A101D (high MAGE-A1 expresing cells; TPM: 359), A2058 (medium MAGE-A1 expresing cells; TPM: 128), HS294T, and HEK293T cells were maintained in complete DMEM. SK-MEL-5 was cultured in complete EMEM, whereas U266B1, NCIH1437 and 786-0 required complete RPMI. Untransduced cancer cells were maintained in preparation for the T cell recognition assay, and 10^6 cells of each cell line were introduced with Incucyte® NucLight™ Red lentivirus reagent (Sartorius, Gottingen, Germany) Positively-labeled cells were selected using 1.5 ug/mL of puromycin over 72 hours.
Cancer cells selected for Incucyte® NucLight™ analysis were seeded into 96-well flat bottom plates (Corning, Flintshire, UK) at 10^4 cells. On the same day, T cells were thawed, washed in complete RPMI-1640, and allowed to rest overnight in medium with 50 U/mL IL-2 (PeproTech), 5 ng/mL IL-7, and 5 ng/mL IL-15 (R&D Systems). All cells were rested overnight at 37° C. in 5% CO2. […] Imaging utilized a 4x objective lens and data were analyzed using the Incucyte® Basic Software. […]

B1: TCR 32-41: T cell receptor recognizing MAGEA1 epitope presented by HLA-C*07:02; alpha TRAV27/TRAJ52, beta TRBV12-4/TRBJ1-4; wild type, HM and MGTM sequences listed (protein)
TCR alpha: QLLEQSPQFLSIQEGENLTVYCNSSSVFSSLQWYRQEPGEGPVLLVTVVTGGEVKKLKRLTFQFGDARKDSSLHITAAQPGDTGLYLCAGDESISYGKLTFGQGTILTVHPNIQNPEPAVYQLKDPRSQDSTLCLFTDFDSQINVPKTMESGTFITDKCVLDMKAMDSKSNGAIAWSNQTSFTCQDIFKETNATYPSSDVPCDATLTEKSFETDMNLNFQNLLVMVLRILLLKVAGFNLLMTLRLWSS
TCR beta: DAGVIQSPRHEVTEMGQEVTLRCKPISGHDYLFWYRQTMMRGLELLIYFNNNVPIDDSGMPEDRFSAKMPNASFSTLKIQPSEPRDSAVYFCASSFLGWNEKLFFGSGTQLSVLEDLRNVTPPKVSLFEPSKAEIANKQKATLVCLARGFFPDHVELSWWVNGKEVHSGVCTDPQAYKESNYSYCLSSRLRVSATFWHNPRNHFRCQVQFHGLSEEDKWPEGSPKPVTQNISAEAWGRADCGITSASYQQGVLSATILYEILLGKATLYAVLVSTLVVMAMVKRKNS
Question: B1 was tested. Which “reactivity to putative off-targets as full-length proteins (activation of the reporter, % IFP)” value [1] did it give?
Answer: no activation of the reporter, measured as % IFP, except for LAMB4-IR

Question: What about the “reactivity to putative off-targets as full-length proteins (activation of the reporter, % IFP)” value ([1]; listed as TCR41) of the same molecule?
Answer: did not appreciably react with cells expressing putative off-targets

Question: What about the “reactivity to normal human cells (IFNγ secretion in culture supernatants)” value [2] of the same molecule?
Answer: does not show reactivity to normal human cells

Question: And the “reactivity to normal human cells (IFNγ secretion in culture supernatants)” value ([2]; listed as TCR41)?
Answer: did not react with healthy human primary cells

Question: And the “cytotoxic activity (killing) on cell lines with low to zero MAGEA1” value [3]?
Answer: does not kill cell lines with low to zero MAGEA1 expression
